Experimental data reported in patent US20190282673A1, “STAPHTAME ACTIVITY ON BIOFILMS” (priority 2016, published 2019).

Test system: multi-species biofilm (P. aeruginosa PAO1, S. aureus ATCC 700699, E. faecalis ATCC 29212)
Assay: Lubbock chronic wound pathogenic biofilm (LCWPB) mixed culture model
Format: cell-based
Conditions: for CFU/mL of P. aeruginosa / CFU/mL of E. faecalis / CFU/mL of S. aureus: 24 h
Experimental: LCWPB media (Bolton broth, Oxoid Ltd, supplemented with 50% Bovine Plasma and 5% hemolyzed horse blood) was used for multi-species biofilm formation according to the procedure described. Sun, et al. (2008) “In vitro multispecies Lubbock chronic wound biofilm model” Wound Repair Regen. 16:805-13. Briefly, P. aeruginosa PAO1, E. faecalis ATCC 29212 and S. aureus ATCC 700699 grown on TSB agar plates were inoculated into TSB broth and grown at 37° C. in a shaker for 16 h. The cultures were individually diluted to 1×10^6 CFU/mL, mixed in equal volumes, and 10 μL was added to 3 mL of LCWPB media containing a sterile pipette tip. For biofilm formation either two (P. aeruginosa PAO1, and S. aureus ATCC 700699) or all three bacterial species (P. aeruginosa PAO1, E. faecalis ATCC 29212 and S. aureus ATCC 700699) were inoculated into LCWPB media. In this model the pipette tip acts as a surface for biofilm formation. To test the ability of P128 to prevent biofilm formation, P128 at 10, 50 and 250 μg/mL was added to the tubes and the tubes were incubated at 37° C. in a shaker for 24 h with shaking at 150 rpm. Upon completion of incubation, the tips were removed from the tubes and placed on petri plates for observation. In the absence of P128, a confluent and thick mass of biofilm could be seen. The mass of the biofilm was greater in culture tubes with 3 species than in the ones with 2 species. For enumeration of bacteria in biofilms, the biofilm formed on the tips was washed twice in PBS, transferred into clean test tubes, and again washed twice with PBS. The washed biofilm mass was then transferred to a 50 mL conical polypropylene tube and the biofilm was macerated with sterile scissors. In situations when biofilm formation was not visible, the tips alone were processed as described above. The contents were vortexed thoroughly, diluted and plated on TSA plates. The plates were incubated for 24 h at 37° C. followed by incubation at ambient temperature for 24 h to enhance pigment production.

[1] = two species (P. aeruginosa PAO1, S. aureus ATCC 700699), P128 10 μg/mL

B1: P128: anti-staphylococcal chimeric protein: phage tail associated muralytic enzyme (TAME) cell wall-degrading region plus staphylococcus-specific binding region; SEQ ID NO: 1 (protein)
chain: MSLDSLKKYNGKLPKHDPSFVQPGNRHYKYQCTWYAYNRRGQLGIPVPLWGDAADWIGGAKGAGYGVGRTPKQGACVIWQRGVQGGSPQYGHVAFVEKVLDGGKKIFISEHNYATPNGYGTRTIDMSSAIGKNAQFIYDKKLETPNTGWKTNKYGTLYKSESASFTPNTDIITRTTGPFRSMPQSGVLKAGQTIHYDEVMKQDGHVWVGYTGNSGQRIYLPVRTWNKSTNTLGVLWGTIK
modifications: P128 chimera
Prevention of biofilm formation (P128 1×MIC (10 μg/mL)): prevented the formation of biofilms | CFU/mL of P. aeruginosa (three species (P. aeruginosa PAO1, S. aureus ATCC 700699, E. faecalis ATCC29212), P128 10 μg/mL): 2.2 × 10^5 CFU/mL | CFU/mL of E. faecalis (three species, P128 10 μg/mL): 9 × 10^5 CFU/mL | CFU/mL of S. aureus (three species, P128 10 μg/mL): 2 × 10^4 CFU/mL | CFU/mL of E. faecalis (three species, P128 50 μg/mL): 1.8 × 10^4 CFU/mL | CFU/mL of P. aeruginosa (three species, P128 50 μg/mL): 7 × 10^4 CFU/mL | CFU/mL of S. aureus (three species, P128 50 μg/mL): 2 × 10^3 CFU/mL | CFU/mL of E. faecalis (three species, P128 250 μg/mL): 1.6 × 10^4 CFU/mL | CFU/mL of P. aeruginosa (three species, P128 250 μg/mL): 1.7 × 10^5 CFU/mL | CFU/mL of S. aureus (three species, P128 250 μg/mL): <10 CFU/mL | CFU/mL of P. aeruginosa [1]: 2 × 10^6 CFU/mL | CFU/mL of S. aureus [1]: 2.2 × 10^5 CFU/mL | CFU/mL of P. aeruginosa (two species, P128 50 μg/mL): 1.5 × 10^5 CFU/mL | CFU/mL of S. aureus (two species, P128 50 μg/mL): 1.8 × 10^5 CFU/mL | CFU/mL of P. aeruginosa (two species, P128 250 μg/mL): 8 × 10^5 CFU/mL | CFU/mL of S. aureus (two species, P128 250 μg/mL): 2 × 10^3 CFU/mL
